Measurements taken from article PMC3930741.

Biological target: recombinant Tg-p43 (E. coli-derived) (Toxoplasma gondii)
Test: cross-linking; purified E. coli-derived Tg-p43 at 1 mg/ml in PBS with 10% glycerol, 0.25% glutaraldehyde on ice, stopped with Tris-HCl pH 8; Coomassie-stained SDS-PAGE; beta-amylase and carbonic anhydrase for comparison

“recombinant Tg-p43 (E. coli-derived) (natural protein)” showed a stoichiometry N of 2.
